Experimental data reported in publication PMC7334584 (Proceedings of the National Academy of Sciences of the …, 2020).

B1: Sulfolobus acidocaldarius Mre11 (enzyme, UniProt Q8NKQ0 1-382, looked up)
chain: MQLLHISDTHLGKRQYNLESREKDVYDTFTQLIDIAINEHVKAVIHTGDLFDVNNPPNRAKLHAIKELKRLKDHNIPFICIAGDHDSPKRKEEIYPQRILEEFNLIKILQKIDNRVKLENVEVYGISHISNVSVNDLKEQLSKVKPETRKSILMLHQGIRTYLPYQGAWQIELSDLPKGFSLYAVGHLHSRRKDYLDGGALIEIAGSPDIMREEEIEDYQKSKKGATLIDMSGDLPSINYINVNIRDQLVLDINVDKIEQSIESVIQKLKENVKNDKKPILHIELEGTVPIRKDVLMTKLQALRDYVEHYRIYKNNIVSIKEENLKTKLKTTYSSLNDIIADYLKGIGYTDEETKIIIDIINEEDEKKVEELLKKFAGVEDK
B2: Sulfolobus acidocaldarius Rad50 (enzyme, UniProt O33600 1-886, looked up)
chain: MIIREIRLQNFLSHEDTTVKFEGSINVIIGNNGAGKSSIIDGILFGLFKRTNRDIGKNEELIKKGKKSGQVSIKFEINGDTYLIDRNVGETSRDTISLLKEGKIITLARQSTTVNNKIKEILGFDHKILMSTTIIGQGSVESVFSDFPEVMKELLKINKLEMLRESNGPIHSLIKVLTDRIRSLQSIKDILKREEAEIDRLKKEIEEIKVKLENIEREAKEKEDELNQYNTEFNRIKEIKVQYDILSGELSVVNKKIEEIALRLKDFEEKEKRYNKIETEVKELDENREKINTISSFKSILVQIDSLKSQINVVENDLKRKKEKLKRKKELEEKEKQYEEIEKRKKELEEKEKQYEEIEKRLTYVLKNIERQKNEIEKLNYVDTQDLENKIKDVSDRINQIDNELKGLLDRRGDLNGRKEQTLKIYNNLNSIEDDRCPICGRPLDSEHKAKIREEIKVQLLELNKQITALQARINSLIKEREELEATRNKLQLELQKRSKEKGIYEAKLKELQRLEEEKNKLQNEILSLLSYHQEFENIAEKEKELIDYHEEYLKNSDILEEDIQEQEQRLNELNSKLSELEKSYNDYKAKYQFLPADLKSLVSLEERIRRRISELEKLKIEYERLKEEITRMKGLKEEYEKLKEEEDALLNRISELGYSEKRYKQLEEIIDKLSKILSGIEADKGKIKGSLEEKIKNIEEKERNIEELRNKMNEESKLNLGISKLQKLREVLDNKHLQSHIMNIVRNQIENNVNEVIAKFDLSFSAVEIDFVGKSELYVYTASGQKIHINALSGGERISIALALRLAIAKALMNQFSTLILDEPTVNLDEYRRKELIDVIRSAIEIVPQIILVTHDQELIQAGDYIIRVEKKGDTSKVEVSSYDR

Columns and labels:
[1] = target: B2; experiment: atomic force microscopy
atomic force microscopy = target: the molecule itself; experiment: atomic force microscopy

| binding result [1] | Binder | binding result (atomic force microscopy) |
| --- | --- | --- |
| binds | B1 |  |
|  | B2 | binds |
